Measurements: patent US20240010748A1

Biological target: murine Claudin 18.2 (mCLDN18.2) on stably-transfected HEK293 cells (murine) (UniProt P56857)
Assay: FACS on HEK293-mCLDN18.2 cells

B1: h160C9AA (antibody, human IgG1, lambda, L234A L235A, V domains shown)
VH: EVKLVESGGGLVQPGGSLKLSCAASGFTFNTYAMNWVRQAPGKGLEWVARIRSKYNNYATYYADSVKDRFTISRDDAKNTLYLQMNNLRTEDTAVYYCVRHGNFGNSYVSWFAYWGQGTLVTVSS
VL: QAVVTQEPSLTVSPGGTVTLTCRSSTGAVTTSNYANWVQQKPGQAPRGLIGGTNKRAPGTPARFSGSLLGGKAALTLSGAQPEDEAEYYCALWYSNLWVFGGGTKLTVLG
MFI (Max): 543 MFI
